# ± gives the uncertainty stated by the source.
# Test: self-splicing fitness, log relative to wild type (ln ratio); higher = more splicing; Tetrahymena group I intron in knt gene, E. coli kanamycin selection, DiMSum; sequences stand for … in CUCUCU…GGAGGGAAAAGUUAUCAGGCAUGCACCUGGUAGCUAGUCUUUAAACCAAUAGAUUGCAUCGGUUUAAAAGGCAAGACCGUCAAAUUGCGGGAAAGGGGUCAACAGCCGUUCAGUACCAAGUCUCAGGGGAAACUUUGAGAUGGCCUUGCAAAGGGUAUGGUAAUAAGCUGACGGACAUGGUCCUAACCACGCAGCCAAGUCCUAAGUCAACAGAUCUUCUGUUGAUAUGGAUGCAGUUCACAGACUAAAUGUCGGUCGGGGAAGAUGUAUUCUUCUCAUAAGAUAUAGUCGGACCUCUCCUUAAUGGGAGCUAGCGGAUGAAGUGAUGCAACACUGGAGCCGCUGGGAACUAAUUUGUAUGCGAAAGUAUAUUGAUUAGUUUUGGAGUACUCGUGGUCG
# In short: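 Pooled colonies went to amplicon sequencing on an Illumina HiSeq 2500 after six replicate transformations. The plates were LB agar with 100 μg/mL carbenicillin, 50 μM IPTG and 0.2% rhamnose, with or without 25 μg/mL kanamycin, incubated overnight at 37°C or 30°C. The E. coli BL21(DE3) library had all eight P1ex-region intron nucleotides randomised, the intron placed in the knt kanamycin-resistance gene on pET-22b(+). DiMSum fitness is the error-weighted combination of replicate fold changes, kanamycin against none, normalised to wild type.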
Sequence,self-splicing fitness (ln) (30 °C),self-splicing fitness (ln) (37 °C)
CAUCAGCAAUAUUACGUAGG,-0.284 ± 0.05,0.412 ± 0.077
CUGAAGCAAUAUUACGACUG,0.187 ± 0.08,0.678 ± 0.11
UCAUAGCAAUAUUACGGCUC,-2.73 ± 0.24,-1.78 ± 0.26
CAUCAGCAAUAUUACGCGCU,–,-1.87 ± 0.29
ACGUAGCAAUAUUACGAGUA,-3.15 ± 0.21,-1.07 ± 0.12
AACCAGCAAUAUUACGCGCG,-0.385 ± 0.082,0.256 ± 0.11
UCUGAGCAAUAUUACGACAU,-3.788 ± 0.034,-2.73 ± 0.044
ACGCAGCAAUAUUACGUGGC,-2.88 ± 0.14,-2.26 ± 0.17
ACCGAGCAAUAUUACGAGUA,-3.23 ± 0.27,-3.5 ± 0.35
CCCGAGCAAUAUUACGCUGU,-4.16 ± 0.31,-2.62 ± 0.27
AAGAAGCAAUAUUACGGCGC,-0.183 ± 0.19,-0.28 ± 0.25
CACGAGCAAUAUUACGGUGG,-2.15 ± 0.11,-2.33 ± 0.15
GCAGAGCAAUAUUACGAGAA,–,-1.96 ± 0.32
CACCAGCAAUAUUACGGUGG,-2.71 ± 0.077,-1.59 ± 0.084
CCACAGCAAUAUUACGAACU,-2.98 ± 0.17,-3.23 ± 0.32
UUCGAGCAAUAUUACGAUUA,-1.39 ± 0.26,-0.875 ± 0.25
GCCUAGCAAUAUUACGCACU,-0.602 ± 0.083,0.143 ± 0.078
CAAAAGCAAUAUUACGUGAA,-2.73 ± 0.085,-1.63 ± 0.099
GUCGAGCAAUAUUACGACUA,-1.67 ± 0.23,-1.28 ± 0.18
CGUUAGCAAUAUUACGAAGC,-2.28 ± 0.43,–
CGAGAGCAAUAUUACGACAA,-1.65 ± 0.39,–
AGACAGCAAUAUUACGUGGU,-3.66 ± 0.14,-2.13 ± 0.12
CUCAAGCAAUAUUACGCACA,-2.17 ± 0.34,-2.48 ± 0.28
GUCGAGCAAUAUUACGAUGU,-0.956 ± 0.059,-0.601 ± 0.084
GUACAGCAAUAUUACGGUAA,-0.865 ± 0.13,-0.97 ± 0.12

Sequence,self-splicing fitness (ln) (30 °C),self-splicing fitness (ln) (37 °C)
AGUAAGCAAUAUUACGAGGC,-2.59 ± 0.34,–
CGUGAGCAAUAUUACGCCCA,–,-2.03 ± 0.46
AUCAAGCAAUAUUACGCGCU,-1.27 ± 0.12,-0.36 ± 0.11
UGGGAGCAAUAUUACGUCGA,-1.85 ± 0.39,-1.21 ± 0.28
UAUGAGCAAUAUUACGGUGU,-3.54 ± 0.23,-2.63 ± 0.2
AUACAGCAAUAUUACGUACG,-0.772 ± 0.1,0.0144 ± 0.12
CCCUAGCAAUAUUACGCUGG,-4.39 ± 0.27,-2.89 ± 0.27
UCACAGCAAUAUUACGUACU,-2.82 ± 0.17,-2.09 ± 0.22
UAUUAGCAAUAUUACGAAGA,-1.81 ± 0.17,-1.75 ± 0.26
CAAUAGCAAUAUUACGUACU,-3.33 ± 0.13,-1.8 ± 0.13
ACAAAGCAAUAUUACGUCUA,-2.1 ± 0.083,-0.824 ± 0.086
AGCAAGCAAUAUUACGACAG,-2.65 ± 0.14,-1.45 ± 0.15
ACUGAGCAAUAUUACGCCGC,-3.95 ± 0.34,-1.23 ± 0.49
AAGGAGCAAUAUUACGGCUU,-2.58 ± 0.25,-1.64 ± 0.28
AAACAGCAAUAUUACGAUAC,-2.44 ± 0.11,-1.37 ± 0.14
AAUUAGCAAUAUUACGUUAG,-4.03 ± 0.28,-3.13 ± 0.26
CUCUAGCAAUAUUACGAAUG,-1.55 ± 0.091,-1.1 ± 0.11
CCUAAGCAAUAUUACGCUGA,-2.63 ± 0.21,-1.96 ± 0.32
UGCGAGCAAUAUUACGGGGU,-2.77 ± 0.2,-3.12 ± 0.35
CUCUAGCAAUAUUACGUGCU,-2.48 ± 0.3,-2.38 ± 0.27
UUCUAGCAAUAUUACGCCCU,-2.51 ± 0.27,-0.693 ± 0.19
AGGUAGCAAUAUUACGAAAA,-2.61 ± 0.031,-2.01 ± 0.041
ACUGAGCAAUAUUACGCAGC,–,-1.7 ± 0.42
GUUCAGCAAUAUUACGGCGC,-0.314 ± 0.094,0.633 ± 0.13
CUUGAGCAAUAUUACGGCCG,–,-0.18 ± 0.27
